Laboratory results: patent publication US20050053994

Biological target: actin

B1: human DNase I (protein)
chain: LKIAAFNIQTFGETKMSNATLVSYIVQILSRYDIALVQEVRDSHLTAVGKLLDNLNQDAPDTYHYVVSEPLGRNSYKERYLFVYRPDQVSAVDSYYYDDGCEPCGNDTFNREPAIVRFFSRFTEVREFAIVPLHAAPGDAVAEIDALYDVYLDVQEKWGLEDVMLMGDFNAGCSYVRPSQWSSIRLWTSPTFQWLIPDSADTTATPTHCAYDRIVVAGMLLRGAVVPDSALPFNFQAAYGLSDQLAQAISDHYPVEVMLK
- DNA-hydrolytic activity in plasmid nicking assay (supercoiled pBR322, agarose gel): the DNA-hydrolytic activity of human DNase I was inhibited by added actin in a concentration-dependent manner

B2: human LS-DNase (protein)
chain: MRICSFNVRSFGESKQEDKNAMDVIVKVIKRCDIILVMEIKDSNNRICPILMEKLNRNSRRGITYNYVISSRLGRNTYKEQYAFLYKEKLVSVKRSYHYHDYQDGDADVFSREPFVVWFQSPHTAVKDFVIIPLHTTPETSVKEIDELVEVYTDVKHRWKAENFIFMGDFNAGCSYVPKKAWKNIRLRTDPRFVWLIGDQEDTTVKKSTNCAYDRIVLRGQEIVSSVVPKSNSVFDFQKAYKLTEEEALDVSDHFPVEFKLQSSRAFTNSKKSVTLRKKTKSKRS
- DNA-hydrolytic activity in plasmid nicking assay (supercoiled pBR322, agarose gel): the DNA-hydrolytic activity of LS-DNase was not inhibited by concentrations of actin that fully inhibited human DNase I
